Test results: the RNAGym collection of RNA variant scans (doi:10.1073/pnas.2313332121)

B1: TPR t1 (parent)
chain: GACCAAUCUGCCCUCAGAGCUCGAGAACAUCUUCGGAUGCAGAGGAGGCAGGCUUCGGUGGCGCGAUAGCGCCAACGUCCUCAACCUCCAAUGCAUCCCACCACAUGAUGAUGCCUGAAGAGCCUUGGUUUUUUG

Variants of: B1
Assay: polymerase ribozyme fitness, log enrichment relative to wild type (log ratio); higher = more active; in vitro selection for triplet polymerase activity
Method in brief: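 In triplicate, a single round of in vitro selection was run on each mutant library, PCR-built and transcribed, covering one subunit of a heterodimeric triplet polymerase ribozyme. Frozen incubation at −7 °C followed annealing with a biotinylated primer, partner subunit and triplets, and extended constructs were then gel-excised, streptavidin-captured and taken through RT-PCR. Fitness is the logarithm of genotype enrichment over wild-type enrichment, from inverse-variance-weighted replicate averages of Illumina-sequenced inputs and outputs. […] only genotypes with ≥10 input reads and ≥1 read per output were kept.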

Point of comparison: C70A G110A, “polymerase ribozyme fitness (log ratio)” value -3.53. Against it:
- A66U C89U — higher, -1.51
- G71C G93C G127A — higher, -2.95
- C70U C115G U116C — lower, -4.43
- G71C G93A — higher, -1.77
- G69C A100U — higher, -1.67
- G69U A103C U131C — higher, -1.05
- G69A A121U U126G — higher, -2.09
- U67C G120U — lower, -4.12
- C70U A103G — lower, -4.3
- A66U U78C — higher, -0.769
- G71C U78A A118G — higher, -0.642
- G69U G113U — higher, -0.867
- G71A G120C G127A U131G — higher, 1.2
- C70G U131A — higher, -2
- G71A C94U — higher, -1.55
- G69A C114A — lower, -5.11
- G69A C114U — lower, -5.33
- G69A C114G — lower, -4.69
- U67C C123G — lower, -4.34
- C70A A100U — higher, -2.07
- G69U G93A — higher, -0.201
- C70U C82A — higher, -1.09
- G69C G117A — higher, -2.37
- C70A U106C U129A — higher, -2.95
- C70U C72A A103U A108G G110A — lower, -6.1
- C70A C86A U87G — higher, -2.94
- G69C C70G C82A — lower, -4.81
- U67C C88A G117C — lower, -5.9
- G71C C98U — higher, -1.75
- C70U C76A A121U U125G — higher, -0.883
- G69C G113A — higher, -1.72
- G69U C70G U109A A111C — lower, -5.41
- G71A C89U — higher, -0.978
- G69U U78C C102U — higher, 0.0221
- C70A C104A U109A G128C — lower, -7.62
- G69A U133A — higher, -3.31
- G71A G110C — lower, -4.27
- C70A C89G — lower, -3.96
- G71A U92A C94U C115G — lower, -4.8
- G71A C98G — lower, -6.1
- C70G U132G U133A — higher, -2.52
- A68G C101G — lower, -3.93
- C70U A95U A111U G120U — lower, -6.23
- G71A C82U C101A — higher, -0.823
- C70U U96A — higher, -1.14
- G69U U125A — higher, -0.179
- G69A A91U — lower, -6.02
- G71C C88G — higher, -1.88
- G71C G117C — lower, -4.7
- C70A U112A — higher, -0.662
- C70A U112C — higher, 0.318
- A66U U81A — higher, -1.96
- G71C A84G U133A — lower, -3.86
- G69C U81G — lower, -5.01
- C70G U106C — higher, -2.51
- G69U G110A A118C — higher, 0.45
- G69C A75G — higher, -2.54
- C70U A75U G77U A83U U106A C114U C123G U133G — lower, -6.34
- G69C C97G C101A G107A U112G U130G — lower, -6.6
- C70U U130A — higher, -1.04
- G71A C99G A100C C123A — lower, -8.12
- C70G A105U G113A — lower, -6.59
- C70A U81C — higher, -2.67
- C70G C114U — lower, -4.81
- A66U G77C C82U G128C — lower, -4.12
- C70U C82G A118G — higher, -1.41
- G69A U78A G93A — lower, -4.02
- C70G A75C C115A — higher, -1.54
- C70G C73U — higher, -2.63
- C70U C72G G77C — higher, -2.87
- G71A U106C — higher, -1.36
- C70A G71U A75G C99A A121U G127U — lower, -4.8
- C70A G93A U116C C123A — lower, -5.19
- C70A C97U — higher, -2.23
- G69C C86G A91U — lower, -4.84
- G69C C98U — higher, -1.79
- G71A C85G U126C — higher, -2.15
- C70U G71A U130C — higher, -1.13
- G71A C89U U126C — higher, -1.9
- C70A G117C — lower, -3.77
- A68G G71A A95C — lower, -6.02
- G69C U130A — higher, -1.59
- G71A U116C G117U — higher, -2.83
- A68U A111C — lower, -7.12
- C70G U87C — lower, -4.17
- G69A U81A C86G — lower, -4.96
- G71U C88U U130G U131G — higher, -2.2
- C70G C97U U116A G117A — lower, -5.25
- U67C U131A — lower, -4.05
- C70A G122U — higher, -1.64
- G69C C82A C97G U132A — lower, -5.29
- C70U G93C C115U — within 0.2 log units, -3.35
- G69A U81A — higher, -3.16
- G71A G127C — higher, -1.54
- U67C C94A C123U — lower, -6.04
- C70U U78A G120U G128A — higher, -2.18
- G71A G122A — higher, -1.18
- G69U U133G — higher, 0.15
- G71C U92C — higher, -2.76
- G71A A84U U112A U131A — higher, -0.0045
- C70A G127C — higher, -2.17
- G69A C104U G127A U129A — higher, -2.62
- C70U A74G G120C — higher, -1.57
- C70G G117A — within 0.2 log units, -3.54
- G69U A84U C124U — higher, 1.84
- G71A C114U — higher, -2.27
- G71C G120A — higher, -0.0968
- C70G A84U — higher, -3.25
- G69A C88G C102U — lower, -6.62
- C70U A111C U116G A121C — lower, -4.3
- G71U C76A — lower, -5.51
- G69A G120U — higher, -2.36
- G71C C79A C85G G120A — higher, -3.28
- C70A C73G G120C — lower, -5.26
- C70U C82A C123U G128A — higher, -1.76
- G69A C72G A95G U125A — lower, -6.14
- G69U U112G C123G — higher, 1.13
- C70U G77A U81C — higher, -1.19
- G69U C72G U78G U129C — higher, -1.86
- G71C A121U — higher, 0.296
- G69U A105U — higher, -0.0845
- G69U A105C — higher, -0.532
- G71A C79U C98U — higher, -1.99
- G69U G117C — higher, -2.27
- G71A U78A — higher, -0.645
- C70U C101U G117C — lower, -5.37
- G71C C89U U126C — higher, -2.71
- G69C G110C — lower, -4.54
- C70A C102U U112C — higher, -2.21
- G69U C70G A100C — higher, -1.23
- C70A U129A — higher, -3.27
- C70A U129C — higher, -2.68
- C70G A100U — lower, -4.02
- G69C U116C — higher, -1.92
- C70A C85U G110C C115U A121G — lower, -7.89
- G69U C98U C115A U130A — higher, -1.03
- G71A U112G — higher, -1.07
- G71A U112C — higher, 0.03
- G69U G93U G120A U125G U129G — higher, -0.716
- C70U U131G U133A — higher, -0.369
- G71A A91G A121U — higher, -0.169
- C70U G113C — higher, -3.06
- C70G U78G — higher, -2.07
- G69U C70G U92C G122A U125A — higher, -3.32
- G71U C101A — higher, -1.24
- G71U C101U — higher, -0.379
- G71U C101G — higher, -1.83
- G71C A74G A91C G93C C99G A105U A111G — lower, -6.99
- G69U G135U — higher, -0.532
- C70U C99U — within 0.2 log units, -3.35
- G69C U106A C124A G128A — higher, -1.94
- A68G A90U — lower, -4.47
- C70G C79A — lower, -4.41
- G69U C94A C101G G120U — higher, -1.15
- C70U C114U — higher, -2.88
- C70G C85U A90U C104A C115A — lower, -6.79
- G71C U81C A90G — higher, -2.36
- C70A U130A — higher, -2.04
- C70U C102A C124G — higher, -1.09
- C70G A121G U131A — higher, -0.0344
- G69C C72A C94G — lower, -5.12
- G69U A111U — higher, -1.16
- C70U C79A — higher, -2.03
- C70U C79G — higher, -2.8
- C70U C79U — higher, 0.361
- C70U C79U C124U — higher, 1
